Numbering of substitutions follows the chain as printed.
B1: Fv variant clone 5, surface-expressed on the outer membrane of E. coli (protein, part only; not given: AIDA-1 display anchor and linker, not shown: another chain or arm of the molecule; large carriers; small tags and cut ends)
VH: EVQLVESAAEVRRPGASVKITCKASGYSFSTYGIQWMRQAPGQRPEWLGWIHAGTGGTKYSRKFQGRITITRDTSANTVYLDLNSLTSEDTAVYYCARCGPDSDVMTDFWGQGTTVTVSS
B2: Fv variant clone 23, surface-expressed on the outer membrane of E. coli (protein, part only; not given: AIDA-1 display anchor and linker, not shown: another chain or arm of the molecule; large carriers; small tags and cut ends)
VH: B1 VH with C99Y, D102V, S103G, D104R, M106K, T107R, F109D
B3: Fv variant clone 39, surface-expressed on the outer membrane of E. coli (protein, part only; not given: AIDA-1 display anchor and linker, not shown: another chain or arm of the molecule; large carriers; small tags and cut ends)
VH: B1 VH with C99D, P101T, D102A, S103K, D104K, V105S, M106R, T107K, F109D

What follows are binders tested against Ribonuclease A (Type II-A) from bovine pancreas (bovine) (UniProt P61823) (assay: flow cytometry (FL1-H) of E. coli displaying the Fv variant, incubated with fluorescence-labeled RNase-A).
Ribonuclease A (Type II-A) from bovine pancreas (bovine), sequence (P61823 27-150): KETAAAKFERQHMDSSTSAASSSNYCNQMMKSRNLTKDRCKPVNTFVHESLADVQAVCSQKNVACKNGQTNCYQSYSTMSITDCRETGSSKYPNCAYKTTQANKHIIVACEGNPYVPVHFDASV
Work on B1 yielded a fluorescence intensity, at 3.125 µM fluorescence-labeled RNase-A of 31.5 a.u, a fluorescence intensity, at 6.25 µM fluorescence-labeled RNase-A of 44.7 a.u and a fluorescence intensity, at 12.5 µM fluorescence-labeled RNase-A of 72.3 a.u. The fluorescence intensity, at 25 µM fluorescence-labeled RNase-A was 108 a.u, the fluorescence intensity, at 50 µM fluorescence-labeled RNase-A was 167 a.u and the fluorescence intensity, at 100 µM fluorescence-labeled RNase-A was 196 a.u.
Work on B2 yielded a fluorescence intensity, at 3.125 µM fluorescence-labeled RNase-A of 14 a.u, a fluorescence intensity, at 6.25 µM fluorescence-labeled RNase-A of 17.2 a.u and a fluorescence intensity, at 12.5 µM fluorescence-labeled RNase-A of 23.8 a.u. For the same binder, the fluorescence intensity, at 25 µM fluorescence-labeled RNase-A was 37.5 a.u, the fluorescence intensity, at 50 µM fluorescence-labeled RNase-A was 47.9 a.u and the fluorescence intensity, at 100 µM fluorescence-labeled RNase-A was 69.7 a.u.
With B3 the fluorescence intensity, at 3.125 µM fluorescence-labeled RNase-A was 15.5 a.u, the fluorescence intensity, at 6.25 µM fluorescence-labeled RNase-A was 19.9 a.u and the fluorescence intensity, at 12.5 µM fluorescence-labeled RNase-A was 23.3 a.u. The fluorescence intensity, at 25 µM fluorescence-labeled RNase-A was 31.8 a.u, the fluorescence intensity, at 50 µM fluorescence-labeled RNase-A was 37.8 a.u and the fluorescence intensity, at 100 µM fluorescence-labeled RNase-A was 51.9 a.u.

What follows are binders tested against Ribonuclease A (Type II-A) from bovine pancreas (bovine) (UniProt P61823) (assay: flow cytometry, E. coli surface-displayed Fv, titration of fluorescently labeled RNase A, fit with an adsorption model).
B1 was tested, and the Kd was 23.8 µM.
Work on B2 yielded a Kd of 29.4 µM.
B3 gave a Kd of 28.7 µM.

Reference: patent US20260217863A1, “ANTIBODY OR PEPTIDE BINDING SPECIFICALLY TO RNASE A, IMMUNOASSAY DEVICE AND METHOD FOR DETECTING RNASE A, AND METHOD FOR COLLECTING RNASE A” (UIF (University Industry Foundation), Yonsei University, priority 2022, published 2026)
